# Experimental data: paper PMC7116351 (Protein expression and purification, 2019)
# B1: MgtE Mg2+ channel from Thermus thermophilus (wild type) (natural protein, UniProt Q5SMG8 1-450, looked up)
# chain: MEEKLAVSLQEALQEGDTRALREVLEEIHPQDLLALWDELKGEHRYVVLTLLPKAKAAEVLSHLSPEEQAEYLKTLPPWRLREILEELSLDDLADALQAVRKEDPAYFQRLKDLLDPRTRAEVEALARYEEDEAGGLMTPEYVAVREGMTVEEVLRFLRRAAPDAETIYYIYVVDEKGRLKGVLSLRDLIVADPRTRVAEIMNPKVVYVRTDTDQEEVARLMADYDFTVLPVVDEEGRLVGIVTVDDVLDVLEAEATEDIHKLGAVDVPDLVYSEAGPVALWLARVRWLVILILTGMVTSSILQGFESVLEAVTALAFYVPVLLGTGGNTGNQSATLIIRALATRDLDLRDWRRVFLKEMGVGLLLGLTLSFLLVGKVYWDGHPLLLPVVGVSLVLIVFFANLVGAMLPFLLRRLGVDPALVSNPLVATLSDVTGLLIYLSVARLLLEAV
# Biological target: the molecule itself
# Assay: SEC
protein,measurement,value
B1,stoichiometry N,2
